Results on two molecules are retold here after article PMC2064791 (The Journal of Cell Biology, 2007).

The assay concerns the target T1, GST-tagged Dhh1(46–461) (S. cerevisiae, UniProt P39517 46-461).
T1 sequence (looked up): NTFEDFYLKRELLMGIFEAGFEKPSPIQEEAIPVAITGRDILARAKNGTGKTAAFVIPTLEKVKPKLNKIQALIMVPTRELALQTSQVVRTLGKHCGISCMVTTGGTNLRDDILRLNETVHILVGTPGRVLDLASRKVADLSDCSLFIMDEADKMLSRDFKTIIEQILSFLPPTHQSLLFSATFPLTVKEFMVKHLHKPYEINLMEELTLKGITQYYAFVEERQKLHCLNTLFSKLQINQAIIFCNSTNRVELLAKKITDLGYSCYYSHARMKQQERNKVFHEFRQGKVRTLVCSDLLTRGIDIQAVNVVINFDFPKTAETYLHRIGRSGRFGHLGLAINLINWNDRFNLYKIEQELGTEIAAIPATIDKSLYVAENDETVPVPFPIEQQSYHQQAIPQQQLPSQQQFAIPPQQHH
Kind of assay: pull-down.

B1: His-Dcp2(102–300)-Flag (domain or fragment, S. cerevisiae, UniProt P53550 102-300, looked up)
chain: SIPVRGAAIFNENLSKILLVQGTESDSWSFPRGKISKDENDIDCCIREVKEEIGFDLTDYIDDNQFIERNIQGKNYKIFLISGVSEVFNFKPQVRNEIDKIEWFDFKKISKTMYKSNIKYYLINSMMRPLSMWLRHQRQIKNEDQLKSYAEEQLKLLLGITKEEQIDPGRELLNMLHTAVQANSNNNAVSNGQVPSSQE
As for B1, the binding result is “binds”.

B2: His-Dcp2(1–300)-Flag (domain or fragment, S. cerevisiae, UniProt P53550 1-300, looked up)
chain: MSLPLRHALENVTSVDRILEDLLVRFIINCPNEDLSSVERELFHFEEASWFYTDFIKLMNPTLPSLKIKSFAQLIIKLCPLVWKWDIRVDEALQQFSKYKKSIPVRGAAIFNENLSKILLVQGTESDSWSFPRGKISKDENDIDCCIREVKEEIGFDLTDYIDDNQFIERNIQGKNYKIFLISGVSEVFNFKPQVRNEIDKIEWFDFKKISKTMYKSNIKYYLINSMMRPLSMWLRHQRQIKNEDQLKSYAEEQLKLLLGITKEEQIDPGRELLNMLHTAVQANSNNNAVSNGQVPSSQE
For B2, the binding result is “binds”.
